Results published in patent publication US8722052B2, “Vaccinia virus protein A46 peptide and use thereof” (priority 2008, dated 2014).

Assays:
[1] = tested on: THP-1 cells; test: MTT cell viability assay, THP-1; format: cell-based, human; details: peptide 5 and 10 μM, 10 ng/ml LPS
Method: FIGS. 7A and B are bar charts showing the effect of A464 on TNFα production and cell viability of human THP-1 cells stimulated with LPS. Cells were seeded in 96 well plates (3×10^5 cells/ml) and differentiated with 200 nM PMA for 24 hours before treatment. A464 (SEQ ID NO. 20) was added to the cells at a concentration of 5 or 10 μM 1 hour before stimulating with 10 ng/ml LPS. Supernatants were collected 6 hours after stimulation and assayed for TNFα by ELISA (A) and cells were assayed for viability by the MTT assay (B.). No peptides were added to the control wells (black bars). Data is representative of at least three experiments each performed in triplicate and is expressed as mean±s.d;
FIGS. 9A and B are bar charts showing the effect of A464 on Pam3CysK4-induced TNFα in human THP-1 cells. Cells were seeded in 96 well plates (3×10^5 cells/ml) and differentiated with 200 nM PMA for 24 hours before treatment. […] Data is representative of at least three experiments each performed in triplicate and is expressed as mean±s.d;
Cell viability was measured by assessing mitochondrial function using an MTT (3-(4,5-Dimethylthiazol-2-yl)-2,5-diphenyltetrazolium bromide) assay. […] MTT was then removed and 200 μl per well of dimethyl sulphoxide (DMSO) was added and cells incubated for 20 min at 37° C. in the dark, prior to absorbance being read at 595 nm on a spectrophotometer.

[2] = tested on: IRF3; test: LPS-induced IRF3 activation, IRF3-GAL4 reporter assay in HEK293_TLR4 cells; format: cell-based, human; details: peptide 1, 5 or 10 μM, 10 ng/ml LPS 6 h
Method: FIG. 26 is a bar chart showing the effect of A464 on LPS-induced IRF3 activation in HEK293 cells. HEK293_TLR4 cells were seeded in 96 well plate (1.5×10^5 cells/ml) 24 hours before transfection with the plasmid DNA. Cells were transfected with a plasmid encoding IRF3-GAL4, together with pFR-luciferase and TK-Renilla reporter gene plasmids. The total amount of plasmid DNA transfected into the cells was made up to 230 ng/well by adding pcDNA. A464 (SEQ ID NO. 20) was added to the cells at a concentration of 1, 5 or 10 μM the next day, and cells were stimulated with 10 ng/ml LPS 1 hour after treatment with the peptide for 6 hours. Cells were harvested and assayed for IRF3 activation by reporter gene assay. No peptides were added to the control wells (black bars). Data is representative of two experiments, each performed in triplicate and is expressed as mean fold induction±s.d. relative to control levels;
HEK293 cells were transfected using GeneJuice® a proprietary non-toxic transfection reagent. 200 μl/well cells at a density of 1×10^5 cells/ml were seeded the day before transfection. 0.8 μl of GeneJuice was mixed with 9.2 μl of serum-free DMEM (SFM) per transfection and incubated for 5 min at room temperature before adding the appropriate amount of the plasmid DNA. […] Luciferase activity was analysed using a luminometer.

Question: Which “cytotoxicity (MTT)” value [1] does the source give for KYSFKLILAEYRRRRRRRRR [Peptide A464] here?
Answer: no cytotoxicity

Question: And the “inhibition of LPS-induced IRF3 activation” value [2]?
Answer: completely inhibited LPS-induced IRF3 activation at 1 μM
